In paper PMC6504876, “TFIIE orchestrates the recruitment of the TFIIH kinase module at promoter before release during transcription” (Nature Communications, 2019):

B1: His-TFIIEβ/WT [not stated] / Flag-TFIIEα [not stated] (parent)
chain 1: MDPSLLRERELFKKRALSTPVVEKRSASSESSSSSSKKKKTKVEHGGSSGSKQNSDHSNGSFNLKALSGSSGYKFGVLAKIVNYMKTRHQRGDTHPLTLDEILDETQHLDIGLKQKQWLMTEALVNNPKIEVIDGKYAFKPKYNVRDKKALLRLLDQHDQRGLGGILLEDIEEALPNSQKAVKALGDQILFVNRPDKKKILFFNDKSCQFSVDEEFQKLWRSVTVDSMDEEKIEEYLKRQGISSMQESGPKKVAPIQRRKKPASQKKRRFKTHNEHLAGVLKDYSDITSSK
chain 2: MADPDVLTEVPAALKRLAKYVIRGFYGIEHALALDILIRNSCVKEEDMLELLKFDRKQLRSVLNNLKGDKFIKCRMRVETAADGKTTRHNYYFINYRTLVNVVKYKLDHMRRRIETDERDSTNRASFKCPVCSSTFTDLEANQLFDPMTGTFRCTFCHTEVEEDESAMPKKDARTLLARFNEQIEPIYALLRETEDVNLAYEILEPEPTEIPALKQSKDHAATTAGAASLAGGHHREAWATKGPSYEDLYTQNVVINMDDQEDLHRASLEGKSAKERPIWLRESTVQGAYGSEDMKEGGIDMDAFQEREEGHAGPDDNEEVMRALLIHEKKTSSAMAGSVGAAAPVTAANGSDSESETSESDDDSPPRPAAVAVHKREEDEEEDDEFEEVADDPIVMVAGRPFSYSEVSQRPELVAQMTPEEKEAYIAMGQRMFEDLFE

Variants of: B1
Assay: co-immunoprecipitation (IP of IIEα), immunoblot quantified
Conditions: with Flag-TFIIEα, n = 3, means ± s.d., read off a plot

In the case of chain 1 MDPSLLRERELFKKRALSTPVVEKRSASSESSSSSSKKKKTKVEHGGSSGSKQNSDHSNGSFNLKALSGSSGYKFGVLAKIVNYMKTRHQRGDTHPLTLDEILDETQHLDIGLKQKQWLMTEALVNNPKIEVIDGKYAFKPKYNVRDKKPLLRLLDQHDQRGLGGILLEDIEEALPNSQKAVKALGDQILFVNRPDKKKILFFNDKSCQFSVDEEFQKLWRSVTVDSMDEEKIEEYLKRQGISSMQESGPKKVAPIQRRKKPASQKKRRFKTHNEHLAGVLKDYSDITSSK [chain 1 A150P], the screen value (150 mM KCl) is reported as 0.78 a.u and the screen value (500 mM KCl) is reported as 0.67 a.u.

For chain 1 MDPSLLRERELFKKRALSTPVVEKRSASSESSSSSSKKKKTKVEHGGSSGSKQNSDHSNGSFNLKALSGSSGYKFGVLAKIVNYMKTRHQRGDTHPLTLDEILDETQHLDIGLKQKQWLMTEALVNNPKIEVIDGKYAFKPKYNVRDKKALLRLLDQHDQRGLGGILLEDIEEALPNSQKAVKALGYQILFVNRPDKKKILFFNDKSCQFSVDEEFQKLWRSVTVDSMDEEKIEEYLKRQGISSMQESGPKKVAPIQRRKKPASQKKRRFKTHNEHLAGVLKDYSDITSSK [chain 1 D187Y], the screen value (150 mM KCl) was 0.85 a.u and the screen value (500 mM KCl) was 0.45 a.u.
